Experimental findings from a protein production outcome set (Wang et al. 2014) are described below.
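Also: failed if final PepcDB status was selected cloned or expressed and not failed if soluble or beyond.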

The data set is described as follows: label from the status in PepcDB records.
Consider “MEKFMYSLGVSKKDKIYKDLLKIAIPTAIEFFLFNFISLTDNAMVAYLGDYPVAGVSLANKFFELFVTIGFSMAGAYNIIATRQYNQGDFKSFRNTFFISILTIILFSFPFILISIVNPFFLLRLISNDERAVYYGAAYLNIAIFSFVFAIIKGLIANALKVVEIVKFQVYISVFSVLLNFVFNYIFIFVFHMGVVGAAIATTVIRTLELIVYLVCTAFNKNSILHFKLDDLNINIKPFAQLIKFFIPILLNEFAWFFGYLVLTSIFIGIDTHKYAAYSISFSIYFIIFNIIHSFCISLNIMMGYEMHNSKKEIMKVAIYLSKIGLKLAFLTSFVLFIFSFFAPYIFYTLKYSHLIGIILRYSSVSAFFMALAFQYLFGFFRAGASPSFGAIMEGSVTFVYTIPIAFVLANYTNLPFEIIVFIPSLEDAIKLVVSLPYFYSERWIKSV”, for which the protein production entry is listed as “failed”.
Next, “MVRRRQTSETGLLRQLPLALLIWGLFSLMMWVPAVYALTLNDHPTSRSFFYAGILGLVVVTTISLARAGRPSRHGLLGQLAVLLSTFAVLPLFLAVPFHDALKTTSFLNAYFEMVSAITTTGAEMFPDPGRLSAPLHLWRAQVGWLGGLVMWIAASAILAPLSLGGFEVTAQGQPGRVLVGQGESVDPRGRLLRVAATLAPVYAGLTLVVAILLLAAGDSGLVAICHAMSVMATSGISPVGGLSGGASGLTGEAILFLFMFFALSRLTFSSDTAMRGHARLDQDPEFRIGLLILLGVPALLFLRHWSGAIDIASGENLTLALRALWGSLFTVMSFLSTTGFESTDWAEARQWSGLGTPGMILLGLSVIGGGVATTAGGVKLLRVYALYLNGTRELQRLVHPSSVSSATGRNRRIQRGGAFIAWVFFMLFAISLAAIALALAAAGSDFETAMVLSIATLSTTGPLIEIGAQEPIRLIEMPAAAKLILSGAMIIGRLETLAFIALITPALWRN”: “failed”; “MKLKTRICKKNSIRNSEKVEESSKSTTNCPLSCVDWSSNEEIYFVSDDHQIFKWSDVSRDSVEVAKLPDDFVPTDMHWLLLGGRSSGGGKGSDTLLICSNDGRFVILNKSARVERSISAHAAAISSGRWSPDGAGLLTAGEDGVIKIWSRSGMLRSTVVQNEESIRCARWAPNSNSIVFCQGGHISIKPLAANSKIIRWRAHDGLVLSLSWSTQSNIIASGGEDFRFKIWDAQGANLFTSAAEEYAITSVAFNPEKDYLLWSYNTARFSSPRVGSIFNLSWSADGTQATCGTSTGQLIVAYAIEQQLVSGNLKATSKSRKSITLKDIATGTQDILDFPQRVVSFGLGYGHLVVATTNQVHIYNEKYINTPIIIDGRNDTRVIEVGKKYFMILDALSIWVYTYTGRLHLNPRYPGSQAQIPLLTWRSLSLGLDVLAIRDNSDPTVLHLFDLIPGASRQYDPHSLRAKQQLVQIAACRAGSPEDQFVAFIDSNRELFVSESRNLNSERIDEIYKIGTQLTAIMWASETNILVGVHDSCYSIWYCPGEGASDPTIIALTTITLDTTEFGKHITIESFEESVLTFRSAGALLPVNVNMYCEILHRALLEGQWQQALKICRMGQHSSLWATLAAVATRKHQLQISEEAYSAALQIDKVSYLQHLKALTPSSAEQMAENSLMLGRMLEAETILLHGKKIEQAVGLALRMHNWRRALEISQKHKGEQPELVPRVLQERRKYLKALQREEWDPLYLPLVAKEEADNTSE”: “failed”.
The entry for “MTSETNIRTLVVDDSDFFAEMTADTLTQQHDIESVAANSAAEALERLEGGGFDCVVSDYEMPEMDGLELLEAIRETNPSIPFILLTGRGDEETASAAIAAGVADYLLKLEVVEDKQYGRLANRIENVVSQERTRKKFESLVSDSPDGIVHLTTNGTILSVNPSMAGRLGADPDTLVGQQLSAVMDSEAANQRLEAGKSAVENGTATRSEDAVGGRHYHNQYIPVDSHRKSDTFQLVSRDITERVERQRELERQNDRLEEFASVVSHDLRNPLNVAQGAVDLLGEPADSKEAELVAKIDRSLDRMGCIIEDVLTLARQGQTVSDPQETELSTLASTAWTWIEAEQASMSVASSTKLAADSGRAQDLLANLFRNAIEHNDGDVEIEIGLLESNDGFYIADNGEGVEGDAEDVFEMGYSSTKDGTGFGLAIVEQVAEAHGWEVSLTESDSGGARFEVSSVELHD” is “failed”.
The entry for “MLSRRASLAAIAIGLIAAAGAAHAQSPLGIGSAEPSFSLGGPFAPLMQWINVHQQMFYRALTGALKAMREDSWALGSLIGLSFAYGVFHAAGPGHGKAVISSYMIANETQLRRGILISFVSALIQGLMAIGLVGAAWLVLRGTSITMTKATQAMEIASFAMVALFGAWLLVRKLWSLRIRREPVPVFATAGEAPAARTNGMGTGLRFQGKPVFADHDHNGTGDLCTACGKSHAPDPMLLKGKNFSLHEAWSAIIAVGLRPCSGAIIVMSFALLNGLYLGGVLSVLAMSLGTAITVSALAIMAVSAKGLAVRFAGPGSRKAAGISHAIEIAGALFVLIMGLLLLGASLQF” is “failed”.
